{"source": "the DeepSol protein solubility set", "data": [{"assay": "soluble on expression in E. coli; label from the status in PepcDB or PDB records", "values": [{"sequence": "MSEENITNVQENASDYNEDQIQVLEGLEAVRKRPGMYIGSTSQRGLHHLVWEIVDNAIDEALAGFCTEIEITIEADNSITVRDNGRGIPTGINEKIGRPTVEVIFTVLHAGGKFGGGGYKVSGGLHGVGASVVNALSTSLEVYVHREGQKYYQRFERGDVVMDMEEQGETDYRGTIVHFTPDPQIFTETTEFDFDTLRTRTRELAFLNRGLTISIEDKREEHKVRKDFHYEGGIRSYVEHLNKAKDVIHEPPIYLEGERDDIMVEISMQYNTGFSSNIISFANNIHTYEGGTHESGFKTALTRVINDYARRNKLFKDSDDNLSGEDVREGLTAIISIKHPDPQFEGQTKTKLGNSEARSITDKLFSEALNKFMMENPDVAKKIVEKGVVASRARLAAKRAREVARKSSGLEISSLPGKLADCSSRNPEISELYIVEGDSAGGSAKQGRDRLFQAILPIRGKILNVEKARLDRILANEEIRTIFTAMGTGFGGDFDVSKSRYHKLIIMTDADVDGAHIRTLLLTLFYRYMRPLLDAGYIYIAQPPLYQIKHGKQIEYVYSDGQLEDYLASLDGDTKYSIQRYKGLGEMNPEQLWDTTMNPEHRTLLQVNIKDAIDADETFEMLMGDRVEPRRKFIEDNAQYVKNLDV", "soluble on expression in E. coli": "not soluble"}, {"sequence": "MSEGSGDQSQQRPWASPRQQPIKGIVQPRVLPPFGKPTRHTNKLDYIMTTVLKEAGKHKHVWPFQKPVDAVALCIPLYHERVARPMDLKTIENRLKSTYYTCAQECIDDIETVFQNCYTFNGKEDDVTIMAQNVHEVIKKSLEQAPREEHDMDVYWGKNKKKPAKSDGGSKSSSSKKNDARGPSEAPSEAGSEVSSVTTASAAAPTVSESASVAAKPERKVAGKKTGKRKAESEDDEKPEPLRAKREVAVVKKEVHQPLLPSMKPCLKLLNDFSTKKYQEFAWPFNEPVDAEQLGLHDYHKIIKEPMDLKSMKAKMESGAYKEPSDFEHDVRLMLRNCFLYNPVGDPVHSFGLRFQEVFDRRWAELGDSSSRASSVAPQSAPIAPTPKVAKSSAPKEPKESRKEHKKETTFEASGAKSEDLMQINNALSMIREREEKLKAELAAAQAIKDKLTSVKNRREDNPNEPFPEKLINETRALCTTQVGQNASSSSASSAALRNGRSKKAASARLYGYEFDSDDEDNKMALTYEEKRNLSNLINNLPNNQLNTIISIIQRRERSALMQQQLDDSEVELDFESLGDMCLREMGAFIKTIPTLNGNGDDEKPKTSSNPTSSGATGSKGSSSLESKNGKKKKNFNMSESSDDETSNSRKRRKRESSESQSSSSSDDDSDDEDRPSIPRKSGQPPSTSREWNQSSAPPPRMGGMGGQPPMSRVPASSSTSVSAIGKNNAAASSNSYRYRCFFVRKLNLKISNKKKWKSKKNSTNLVFRSSKTCTSTSTNIIKTSGSTETTVKTKENGRNQQRRLRLDHQRKANPGMVKTSRPGFRGCGWRQSEPAKKKTKAVSRCQTKWK", "soluble on expression in E. coli": "not soluble"}, {"sequence": "MSEKQINNFSLISRLFGNLFYRFPTDKVLADAFVWLQQEGLSQVWALDTDKESELALNSLQVKIDLNLLNEEYQKLFATNGKVMTAISAYGIDVEEFVNFRLVRNMPEVESADHFALLLLTASWLEDNSDSLVAQQEFFETFLLPCAAKFLTQVENQATLPFYRALALLTREILATMADELEEE", "soluble on expression in E. coli": "soluble"}, {"sequence": "MSELDFVRRGQDLKAYRALNWEGSFADYLRLLKEDPRPLRTSFQRVHDMILAHGVEEYTRFKEKLLHYRFFDDPFEGGKDAVFGLDKPLMRLVATLKAAAHRLGPERRILLLHGPVGSAKSTIARLLKKGLEAYSRTEEGKLFTFYWKTEEGPLPCPMHEEPLHLLPQDLREAFLEELRALHPDYPYPLEVEGDLCPVCRFQMREGLRKYEGDLAALLEHEVVVKRLVLSEKDRVGIGTFQPKDEKNQDSTELTGDINYRKVALYGSDSDPRAFNFDGELNIANRGIVEFIEILKLDVAFLYDLLTASQEHKIKSKKFAQTDIDEIVLGHTNEPEYRKLQANEYMEALRDRTIKIDVPYILRVSDEVRIYQRDFAKVRGKHIAPHTLEMAATWAVLTRLEPPKRAGLTLMQKLKLYDGKLLPGWTEEAVRELMGEAKREGLEGISPRYIQDKISNVLVTSEEPCINPFMVMNELEEGLKHHSLISDERTRERYRALLQEVKAEYAEIVKNEVQRAIAADEEALNRLFHNYIDHVKAYVLGEKVKNPYTGAPEPPNERLMRSIEERIDIPESRKDDFRREIMNYIGALALEGKPFTYKDNDRLRRALELKLFDDQKDTIRLSALVSGVVDPETQAKIDVVKARLIRDYGYCEHCASGVLEFAASLFARS", "soluble on expression in E. coli": "soluble"}, {"sequence": "MSELKDIIAAVTPCKGADFELQALKIRQPQGDEVLVKVVATGMCHTDLIVRDQKYPVPLPAVLGHEGSGIIEAIGPNVTELQVGDHVVLSYGYCGKCTQCNTGNPAYCSEFFGRNFSGADSEGNHALCTHDQGVVNDHFFAQSSFATYALSRENNTVKVTKDVPIELLGPLGCGIQTGAGACINALKVTPASSFVTWGAGAVGLSALLAAKVCGASIIIAVDIVESRLELAKQLGATHVINSKTQDPVAAIKEITDGGVNFALESTGSPEILKQGVDALGILGKIAVVGAPQLGTTAQFDVNDLLLGGKTILGVVEGSGSPKKFIPELVRLYQQGKFPFDQLVKFYAFDEINQAAIDSRKGITLKPIIKIA", "soluble on expression in E. coli": "soluble"}, {"sequence": "MSELNKEMTLLPPPELVQYVGGDFKKVGKEFLKHFIQIGALKSNEKVLDVGCGVGRMAVPLMNYLNDDGAYYGFDLFKDGITWCQNNISTMRNNFHFEHVDIYNQFYNPEGKEDASQYRFPYEDGTFDFIFLTSVFTHLLPKELEHYVSEIVRVLKKDGRCFITFFLINPESSYYLNAGQSTLGFYHRIENCYVVNKDIPNFAVAYPETDICNLLNKYGLEIINKPHYGLWCGRHEYTSYQDIVLTKKSFLEHHHHHH", "soluble on expression in E. coli": "soluble"}, {"sequence": "MSENPLLERARRFLSALRHCQVLGLTVEAADEKGLTLRLPYSQAIIGNPESGVVHGGAITTLMDTTCGISTVCVLPDFEICPTLDLRIDYMHPAEPHKDVYGFAECYRVTPNVIFTRGFAYQDDPGQPIAHVVGAFMRMGLEHHHHHH", "soluble on expression in E. coli": "soluble"}, {"sequence": "MSEPASVPRGAAPGSRGTASPRAVVIGAGLAGMLAAAALHRHAEVTVVDRDVLPAEPAPRKGLPQARHAHLLWSGGARAMEDLLPGVTAAWLAAGARRIPLPTGLVSLSAQGWLRRWPEMEFMISCTRDLLDSVIREQVAKKEGVTLLAGTELLGLEGGALRVTGVRVRTPEGEERVLEADLVVDASGRGSRSVAWLDALGVPQAPMDEVDSGLAYASRIFRAPAGTEDFPVVNVQPDPAQPVPAQSATIVPVEGGRWLVTLSGTHGGQPTASAEEFEAFARGVRDPVVGELIAHAEPLTNVVLTRSTINRRRFFEKVKDWPEGFVAIGDAVATYNPVYGHGMSVAAQGAVALREHVAEHGLAAPGLARRAQRAVALPVKIAWELATGTDIRYPEAIGKQPGGTQKLLGRYVERLMRTATGRPLVAQAFLGVITLSRPLSTLVKPEVLFAVLRGPRRSPLAGPPLTPEERKAVLTAKEPSGTQAAGLEHHHHHH", "soluble on expression in E. coli": "not soluble"}, {"sequence": "MSEPEEQQPDIHTTAGKLADLRRRIEEATHAGSARAVEKQHAKGKLTARERIDLLLDEGSFVELDEFARHRSTNFGLDANRPYGDGVVTGYGTVDGRPVAVFSQDFTVFGGALGEVYGQKIVKVMDFALKTGCPVVGINDSGGARIQEGVASLGAYGEIFRRNTHASGVIPQISLVVGPCAGGAVYSPAITDFTVMVDQTSHMFITGPDVIKTVTGEDVGFEELGGARTHNSTSGVAHHMAGDEKDAVEYVKQLLSYLPSNNLSEPPAFPEEADLAVTDEDAELDTIVPDSANQPYDMHSVIEHVLDDAEFFETQPLFAPNILTGFGRVEGRPVGIVANQPMQFAGCLDITASEKAARFVRTCDAFNVPVLTFVDVPGFLPGVDQEHDGIIRRGAKLIFAYAEATVPLITVITRKAFGGAYLVMGSKHLGADLNLAWPTAQIAVMGAQGAVNILHRRTIADAGDDAEATRARLIQEYEDALLNPYTAAERGYVDAVIMPSDTRRHIVRGLRQLRTKRESLPPKKHGNIPL", "soluble on expression in E. coli": "soluble"}, {"sequence": "MSEPLDLNQLAQKIKQWGLELGFQQVGITDTDLSESEPKLQAWLDKQYHGEMDWMARHGMLRARPHELLPGTLRVISVRMNYLPANAAFASTLKNPKLGYVSRYALGRDYHKLLRNRLKKLGEMIQQHCVSLNFRPFVDSAPILERPLAEKAGLGWTGKHSLILNREAGSFFFLGELLVDIPLPVDQPVEEGCGKCVACMTICPTGAIVEPYTVDARRCISYLTIELEGALPEELRPLMGNRIYGCDDCQLICPWNRYSQLTTEDDFSPRKPLHAPELIELFAWSEEKFLKVTEGSAIRRIGHLRWLRNIAVALGNAPWDETILTALESRKGEHPLLDEHIAWAIAQQIERRNACIVEVQLPKKQRLVRVIEKGLPRDA", "soluble on expression in E. coli": "not soluble"}, {"sequence": "MSEQAPAPKRGRRFKEQTPVQRALGLLVHREHSKKELNRKLQARGIEPEAAQAAVERLAGEGWQDDVRFAASVVRNRASSGYGPLHIRAELGTHGLDSDAVSAAMATFEGDWTENALDLIRRRFGEDGPVDLAQRRKAADLLARRGFDGNSIRLATRFDLED", "soluble on expression in E. coli": "soluble"}, {"sequence": "MSESSRIREKYPDRIPVIVEKAGQSDVPDIDKKKYLVPADLTVGQFVYVVRKRIKLGAEKAIFVFVKNTLPPTAALMSAIYEEHKDEDGFLYMTYSGENTFGSLTVA", "soluble on expression in E. coli": "soluble"}, {"sequence": "MSESYTLIKELKRQLKSAGLHYVDVAQHLNLSEGSVKRLLAEGQHISLERLERICQLIGLEMAELFKLAAAHNKGLESLTLEQEKQLVDDKALLLVAICVVNGYQFEQIVQQYTFNELELVQKLAHLDRLNIIDLQPNNKIRLRISPTFKWQMGGPIQRFFQQQVQDAFFQSYFSGEDEQLSMATGLMSVPTNKKLQQKLQKVIDEFYQACQSDSSLDMDEKHGTSLIIAMRRWTFPLFEPWERKPTQKSQN", "soluble on expression in E. coli": "not soluble"}, {"sequence": "MSETGTRISPLFSHRRWKLQVLDLQDVCENFWMVWSEAMARGCFLNAKRNKKPVQDCPRMRGRQPLTVFVELWLKNRTLDEHLTCLLLWVKQRKDLLHLCCKKLKILGMPFRNIRSILKMVNLDCIQEVEVNCKWVLPILTQFTPYLGHMRNLQKLVLSHMDVSRYVSPEQKKEIVTQFTTQFLKLHCLQKLYMNSVSFLEGHLDQLLSCLKTSLKVLTITNCVLLESDLKHLSQCPSISQLKTLDLSGIRLTNYSLVPLQILLEKVAATLEYLDLDDCGIIDSQVNAILPALSRCFELNTFSFCGNPISMATLENLLSHTIILKNLCLELYPAPRESYGADGTLCWSRFTQIRAELMKRVRDLRHPKRILFGTDYCPDCGNRSFYDLEADQYCC", "soluble on expression in E. coli": "not soluble"}, {"sequence": "MSETTQGPTHFRLMSKLKAIGPYLREPQSQEGRYYFDCLSVCVDDKKSPEKREFWGWWMDLESIEGGFTAKYHIGKYNKEGKWVSEALPQKVVEEVYFTQSTFHQKLIDTLAEHFKLEVEYHTESFDFA", "soluble on expression in E. coli": "not soluble"}, {"sequence": "MSEVESQQSQETNGSSKFDVPEIELIIKASTIDGRRKGACLFCQEYFMDLYLLAELKTISLKVTTVDMQKPPPDFRTNFEATHPPILIDNGLAILENEKIERHIMKNIPGGYNLFVQDKEVATLIENLYVKLKLMLVKKDEAKNNALLSHLRKINDHLSARNTRFLTGDTMCCFDCELMPRLQHIRVAGKYFVDFEIPTHLTALWRYMYHMYQLDAFTQSCPADQDIINHYKLQQSLKMKKHEELETPTFTTYIPIDISE", "soluble on expression in E. coli": "soluble"}, {"sequence": "MSFALLMASGGLDSTTVAYWLTERGVQFIPVFFDYGQHCVETEWETLKEVLPASAAHPERNDISDLFRGSKSRLITEADLWNEEVKDEDLYVPYRTLLFYSAAAARAQTLGAFEVYTGFINSNRAKEIDCTAEFMNKLDALTDSVGPVRFLSPFRFWSKSEVAKESIRLGVPIGRTFSCQAASLMPCGACPNCVERLAALRETGLLA", "soluble on expression in E. coli": "not soluble"}]}]}
